Paper PMC5025857, “Redox-dependent Regulation of Gluconeogenesis by a Novel Mechanism Mediated by a Peroxidatic Cysteine of Peroxiredoxin” (Scientific Reports, 2016)

T1: HA-tagged Pyk1 (HA-Pyk1) (S. cerevisiae, UniProt P00549 1-500)
T1 construct: Pyk1 (Cdc19), pyruvate kinase of S. cerevisiae; also called pRS313-HA-PYK1; source: S. cerevisiae (pyk1∆ tsa1/2∆ or pyk1∆ cells) carrying pRS313-HA-PYK1, in lysate (whole cell extract)
T1 sequence (looked up): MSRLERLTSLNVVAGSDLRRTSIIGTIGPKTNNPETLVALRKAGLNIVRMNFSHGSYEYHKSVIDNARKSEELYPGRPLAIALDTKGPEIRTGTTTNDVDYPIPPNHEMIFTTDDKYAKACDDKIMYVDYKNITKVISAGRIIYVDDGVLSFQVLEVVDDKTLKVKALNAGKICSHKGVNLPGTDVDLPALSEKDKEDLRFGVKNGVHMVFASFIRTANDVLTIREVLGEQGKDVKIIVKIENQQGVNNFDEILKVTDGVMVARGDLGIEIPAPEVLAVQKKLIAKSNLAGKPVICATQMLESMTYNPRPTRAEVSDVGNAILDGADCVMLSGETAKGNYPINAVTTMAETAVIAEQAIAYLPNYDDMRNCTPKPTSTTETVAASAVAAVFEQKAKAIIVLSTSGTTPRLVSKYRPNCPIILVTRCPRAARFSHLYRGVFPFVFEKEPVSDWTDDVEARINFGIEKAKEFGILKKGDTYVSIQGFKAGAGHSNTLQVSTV


Target: T1, HA-tagged Pyk1 (HA-Pyk1)
Assay: co-IP; HA-Pyk1 precipitated with anti-HA antibody beads from yeast whole cell extract (400 μg; IP buffer: 100 mM MES pH 7.0, 200 mM KCl, 15 mM MgCl2, 5% glycerol, 0.15% NP-40, 50 mM NEM; 4 °C, 3 h); immunoblot with anti-Tsa1, anti-Pyk1 and anti-Prx-SO2/SO3; cells from glucose (SDM) or ethanol (SEM -Trp) medium, exponential, diauxic shift or early stationary phase, with or without 1, 3 or 10 mM H2O2
Settings: partners not purified

Row | Binder | fold decrease of Pyk1-bound Tsa1 against wild-type Tsa1 (ethanol medium) [fold] | stoichiometry N
1 | Tsa1^C48T (enzyme, S. cerevisiae, UniProt P34760 1-196, looked up, Tsa1 of S. cerevisiae with the peroxidatic cysteine Cys48 mutated to Thr; source: S. cerevisiae pyk1∆ tsa1/2∆ cells carrying an expression vector (pRS315), in lysate) MVAQVQKQAPTFKKTAVVDGVFDEVSLDKYKGKYVVLAFIPLAFTFVTPTEIIAFSEAAKKFEEQGAQVLFASTDSEYSLLAWTNIPRKEGGLGPINIPLLADTNHSLSRDYGVLIEEEGVALRGLFIIDPKGVIRHITINDLPVGRNVDEALRLVEAFQWTDKNGTVLPCNWTPGAATIKPTVEDSKEYFEAANK | ~3 | 
2 | Tsa1^C171T (enzyme, S. cerevisiae, UniProt P34760 1-196, looked up, Tsa1 of S. cerevisiae with the resolving cysteine Cys171 mutated to Thr; source: S. cerevisiae tsa1/2Δ cells carrying an expression vector (pRS315), in lysate) MVAQVQKQAPTFKKTAVVDGVFDEVSLDKYKGKYVVLAFIPLAFTFVCPTEIIAFSEAAKKFEEQGAQVLFASTDSEYSLLAWTNIPRKEGGLGPINIPLLADTNHSLSRDYGVLIEEEGVALRGLFIIDPKGVIRHITINDLPVGRNVDEALRLVEAFQWTDKNGTVLPTNWTPGAATIKPTVEDSKEYFEAANK |  | 8 molecules of Tsa1^C171T for each tetramer of Pyk1
